Assay results: article PMC9800336, “Exploration of the cysteine reactivity of human inducible Hsp70 and cognate Hsc70” (The Journal of Biological Chemistry, 2022)
Ends that are not written are not given here. * marks the point of attachment. FITC = O=C1OC2(c3ccc(O)cc3Oc3cc(O)ccc32)c2ccc(NC(=S)*)cc21

Columns and labels:
Details in all cases: both partners purified
WT hHsp70 (human HspA1A) = biological target: T1, WT hHsp70 (human HspA1A) (human, UniProt P0DMV8 1-641); assay: fluorescence polarisation; kinetic; 20 nM FAR mixed with 10 μM hHsp70 in the presence of 1 mM ADP, RT, FP recorded against time; diamide or diamide with GSH added at 60 min, DTT at 120 min
T1 construct: human HspA1A (hHsp70), UniProtKB P0DMV8, full length; also called HspA1A/B; human inducible Hsp70

[1] = biological target: T2, hHsp70-C17/C574/C603 (hHsp70 C267S/C306S), untreated control (human, UniProt P0DMV8 1-641, C267S | C306S); assay: fluorescence polarisation; steady state; increasing concentrations of Hsp70 with 20 nM FAR peptide, 60-min incubation, RT, buffer B (50 mM Tris-HCl pH 7.5, 100 mM KCl, 5 mM MgCl2); single site-binding model
T2 construct: human HspA1A (hHsp70), UniProtKB P0DMV8, full length with C267S/C306S; also called unmodified form

[2] = biological target: T3, disulfide-bonded hHsp70-C17/C574/C603 (human, UniProt P0DMV8 1-641, C267S | C306S, intramolecular disulfide bond between Cys574 and Cys603); assay: as above
T3 construct: human HspA1A (hHsp70), UniProtKB P0DMV8, full length with C267S/C306S; also called -S-S-; disulfide-bonded form of full length hHsp70

Measured: binding result

T3 sequence (P0DMV8 whole entry C267S/C306S): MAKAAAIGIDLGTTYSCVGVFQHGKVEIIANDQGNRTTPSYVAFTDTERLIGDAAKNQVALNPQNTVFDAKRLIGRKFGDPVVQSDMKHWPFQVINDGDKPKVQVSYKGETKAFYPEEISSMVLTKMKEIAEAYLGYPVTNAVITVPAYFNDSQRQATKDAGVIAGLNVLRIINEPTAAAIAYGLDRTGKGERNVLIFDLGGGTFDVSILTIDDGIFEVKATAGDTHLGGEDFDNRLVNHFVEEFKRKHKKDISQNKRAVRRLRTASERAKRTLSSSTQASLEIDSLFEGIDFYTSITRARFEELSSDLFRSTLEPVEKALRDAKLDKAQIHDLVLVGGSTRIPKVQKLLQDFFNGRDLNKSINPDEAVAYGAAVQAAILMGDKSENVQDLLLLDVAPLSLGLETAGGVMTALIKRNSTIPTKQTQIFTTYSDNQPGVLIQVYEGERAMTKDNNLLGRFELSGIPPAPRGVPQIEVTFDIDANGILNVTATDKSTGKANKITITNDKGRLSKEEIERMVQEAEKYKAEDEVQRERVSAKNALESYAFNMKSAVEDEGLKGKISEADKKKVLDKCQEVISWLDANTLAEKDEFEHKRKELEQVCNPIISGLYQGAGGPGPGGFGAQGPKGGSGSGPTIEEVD
T2 sequence (P0DMV8 whole entry C267S/C306S): as above
T1 sequence (P0DMV8 whole entry): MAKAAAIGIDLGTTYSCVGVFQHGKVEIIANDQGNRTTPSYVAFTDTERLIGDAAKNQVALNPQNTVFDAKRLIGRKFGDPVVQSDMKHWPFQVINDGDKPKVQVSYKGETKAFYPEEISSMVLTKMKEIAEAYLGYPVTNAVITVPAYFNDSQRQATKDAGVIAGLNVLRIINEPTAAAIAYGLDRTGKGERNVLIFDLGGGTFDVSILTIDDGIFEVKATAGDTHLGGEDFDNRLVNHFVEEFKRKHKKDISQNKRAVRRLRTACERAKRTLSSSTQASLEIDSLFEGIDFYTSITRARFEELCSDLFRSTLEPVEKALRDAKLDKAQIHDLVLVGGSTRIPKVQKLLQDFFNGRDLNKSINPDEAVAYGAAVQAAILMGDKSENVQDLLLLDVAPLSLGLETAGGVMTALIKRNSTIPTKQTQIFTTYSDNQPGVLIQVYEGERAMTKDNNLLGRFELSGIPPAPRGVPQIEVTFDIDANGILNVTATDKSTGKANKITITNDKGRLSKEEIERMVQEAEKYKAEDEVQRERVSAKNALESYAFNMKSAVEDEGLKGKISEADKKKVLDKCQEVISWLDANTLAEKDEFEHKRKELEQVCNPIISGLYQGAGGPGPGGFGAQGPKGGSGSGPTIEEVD

B1: FITC-ALLLSAPRR peptide (peptide)
peptide: {FITC}-ALLLSAPRR
notes: fluorescently labelled model substrate peptide of Hsp70; also called FAR; FAR peptide
binds: all assays above
